In the supplement of paper PMC10567573:
± gives the standard deviation.

Assay: protein stability index of a GFP-peptide fusion (GPS, HEK-293T) (PSI 1-6); higher = more stable
Conditions: c terminus: a fixed tail appended
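Note: 24-mer peptide tiles fused after GFP, lentivirally expressed, FACS-sorted into six equal bins by GFP/DsRed ratio, decoded by Illumina sequencing, PSI is the read-weighted mean bin number.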

Sequence | protein stability index (treatment: DMSO) | protein stability index (treatment: MLN4924 1 uM, 8 h)
LEPDEDPLCMLLLIDHLALRARNY [TCF25] | 2.54 ± 0.32 | 2.37 ± 0.23
LERNPNGVADGVIKSVLWQTLQAL [CDKL4] | 2.28 ± 0.94 | 2.56 ± 1.1
LESQVQKDGVADSTVISSMPCLLM [C18orf25] | 3.39 ± 0.25 | 3.54 ± 0.27
LEVNKPKNRYANVIAYDHSRVLLS [PTPRD] | 2.54 ± 0.31 | 2.71 ± 0.21
LFCDVTLTAQGQQFHCHKAVLASC [KLHL14] | 2.66 ± 0.55 | 2.71 ± 0.57
LFEEEDHVKKLQQKVATLEKRNRQ [CCDC3] | 4.46 ± 0.29 | 4.68 ± 0.23
LFFIDGSTPSDNIVRRFLNICENT [CDC14A] | 2.37 ± 0.17 | 2.22 ± 0.24
LFLPCLLCYPPAKGCLKLCRRCYD [SPRY1] | 2.36 ± 0.19 | 2.45 ± 0.62
LGLKDKEGYTSFWNDCISSGLRGG [GOLPH3L] | 2.65 ± 0.59 | 2.83 ± 0.31
LGLTQNPEGQKVLFVTFLLIYMVT [OR4A15] | 2.75 ± 0.66 | 3.33 ± 1.1
LGNEYPKLHYPELYVLKGGYKEFF [CDC25A] | 2.02 ± 0.23 | 2.01 ± 0.39
LGNFFTTLRVVHHKFHSQRHGSKK [TMEM120A] | 2.39 ± 0.21 | 2.54 ± 0.64
LHEVLTEVVPIHGRGNFPTLEITL [TENT5C] | 2.73 ± 0.56 | 2.53 ± 0.53
LHPVQKVILNYPSPWDQEERPAQR [TRAF3IP2] | 3.4 ± 0.37 | 3.66 ± 0.34
LHREVRSTPLTATPGGRGDMKYGI [VTI1B] | 3.72 ± 0.24 | 3.67 ± 0.12
LIAEVMGEDIPEKIKDEVHPEVKC [C8orf76] | 4.51 ± 0.58 | 4.31 ± 0.14
LICKYDFIMLSCVQLQRIPLSAVY [TPRG1] | 3.2 ± 0.37 | 3.36 ± 0.83
LIERERSALGPNVTKITLESFLAW [ZC3H15] | 2.19 ± 0.47 | 2.49 ± 0.14
LIGDLIGHSSSVEMFLYFEDHGLV [WDR41] | 2.57 ± 0.51 | 2.83 ± 0.81
LIHQHEKVIYLDDDVIVQGDIQEL [GLT8D2] | 3.6 ± 0.26 | 3.59 ± 0.22
LKERFAFLFNSELLSDVRFVLGKG [BTBD1] | 2.53 ± 0.23 | 2.64 ± 0.41
LKISPVTLKEAYVQKLVKVCTDTD [TENT5C] | 2.94 ± 0.16 | 2.91 ± 0.14
LKNNETLVQHGVKPQEIVQVEIFS [IQUB] | 2.82 ± 0.54 | 2.98 ± 0.7

Sequence | protein stability index (treatment: DMSO) | protein stability index (treatment: MLN4924 1 uM, 8 h)
LLAPGEQSLPCTERKPAATARLSR [KISS1] | 4.46 ± 0.37 | 4.72 ± 0.18
LLASVPSNPNGNGGFMGYSAENIP [CRY1] | 3.52 ± 0.45 | 3.41 ± 0.23
LLDDGQQASPYHPGSCGAGAPSPG [ELF3] | 4.71 ± 0.1 | 4.57 ± 0.39
LLEGQDAKMAGIGIREASSGGGGS [KRT15] | 5.09 ± 0.14 | 4.87 ± 0.2
LLFVRGAGNCPECGTPLRKSNFRV [MNAT1] | 2.2 ± 0.19 | 2.6 ± 0.32
LLISSCDWMAAMFGGPFVESSTRE [RHOBTB2] | 2.68 ± 0.52 | 2.37 ± 0.48
LLLDCGAEVNAVDNEGNSALHIIV [FEM1B] | 2.39 ± 0.45 | 2.24 ± 0.42
LLLHRGAGKEAMTSDGYTALHLAA [RIPK4] | 2.33 ± 0.25 | 2.22 ± 0.48
LLRSPPPPSARHRAHPPQRPASSG [KCNA3] | 4.42 ± 0.18 | 4.62 ± 0.33
LLSVDAFAAPSPATTASPAKVDSS [SNAP91] | 4.86 ± 0.21 | 4.87 ± 0.07
LLTGETEADPEMIKRAEDYGPVEV [CLPTM1] | 5.02 ± 0.3 | 5.14 ± 0.11
LLTWTEPPVRPAGYLLSFHTPGGQ [TNXB] | 2.42 ± 0.23 | 2.64 ± 0.29
LMCFDPDTDKWIQKAPMTTVRGLH [KLHL13] | 2.57 ± 0.18 | 2.64 ± 0.23
LMKHQTNISELKRTFLETSTDTAV [EPB41L3] | 3.68 ± 0.79 | 3.92 ± 0.38
LMLAGMGLHYIAFRKVKQMHLNFM [DNAJC4] | 2.45 ± 0.82 | 2.41 ± 0.33
LMSDLRRKRTAHERAKELYSSGEF [INTS4] | 3.54 ± 0.19 | 3.65 ± 0.1
LMSGALAVNQKIDRESLCGASTSC [PCDHGC5] | 3.67 ± 0.4 | 3.6 ± 0.095
LNRPGPAPLSSRKHVLYVEHRHLN [TCF25] | 3.14 ± 0.28 | 2.8 ± 0.15
LPACEFEMGGSEGIVESIQIMKEG [NETO1] | 4.92 ± 0.26 | 4.74 ± 0.3
LPCDLPKVVSRAENLSVPVIGALL [LPCAT4] | 2.29 ± 0.37 | 2.27 ± 0.31
LPDVEPAAFLALLRFLYSDEVQIG [BTBD1] | 2.16 ± 0.43 | 2.28 ± 0.28
LPDVSLGRYAYVRGGGDPWTNGSG [MCOLN1] | 2.51 ± 0.43 | 2.87 ± 0.22
LPHPKSMLQATAEANNLAAAASAK [ATL3] | 4.86 ± 0.27 | 5.07 ± 0.19

Sequence | protein stability index (treatment: DMSO) | protein stability index (treatment: MLN4924 1 uM, 8 h)
LPKEASDGTGASQEPPTTDSQEAQ [TOR1AIP2] | 5.65 ± 0.29 | 5.54 ± 0.2
LPSAQDINRLVGLQNTYMGYLDYR [GLT8D2] | 2.52 ± 0.28 | 2.52 ± 0.38
LPSWAELLRPKYRAPQGCSGVDEC [PBXIP1] | 2.83 ± 0.11 | 2.69 ± 0.46
LQHLIGLSNLTHVLYPVPLESYED [PRAME] | 2.3 ± 0.24 | 2.54 ± 0.12
LQLSEFLCEEFRNRNQRIVQLIQD [CPN1] | 2.56 ± 0.25 | 2.71 ± 0.39
LQRLSHSGSRVRVGFRLCNSTGGD [SCNN1D] | 3.14 ± 0.22 | 3.11 ± 0.18
LRCLDRDEPSKPTLALEYTYGRRA [DYNC2LI1] | 3.45 ± 0.14 | 3.41 ± 0.32
LRGGRGGSGGTRGPPSRGGHMDDG [RBMX] | 5.26 ± 0.19 | 5.3 ± 0.34
LRMMVENIMNKEAFMNQEITKAFH [RHOBTB1] | 2.28 ± 0.5 | 2.2 ± 0.24
LRNIQGLFAPLKLQMEFKAVQQVQ [POMP] | 2.25 ± 0.44 | 2.28 ± 0.11
LRRTGCAALRIANCKLFRLQLQQG [GAN] | 2.33 ± 0.47 | 2.13 ± 0.28
LRVLPNLPCVVQEGAIVMARGRHV [PYCR3] | 2.63 ± 0.37 | 2.73 ± 0.22
LSDFGLCTGLKKAHRTEFYRNLTH [STK38L] | 2.41 ± 0.6 | 2.2 ± 0.27
LSESETGPMEEVERQVLPDPEVLE [PBXIP1] | 5.6 ± 0.31 | 5.61 ± 0.16
LSKSRENPEEDEDQRNPAKESLET [SOAT1] | 5.47 ± 0.27 | 5.66 ± 0.34
LSLSNATVLTRSLFLGRILSLTSS [FANCE] | 3.06 ± 0.64 | 2.88 ± 0.34
LSYRNGYAIVRRPTVGIGGDRLQF [EFHC1] | 2.23 ± 0.24 | 2.35 ± 0.29
LTAALLTFDTGCLTLSQYILLDPI [POMT2] | 3.36 ± 0.32 | 3.12 ± 0.14
LTGLQLKLGPALKIYEYHVKPLQT [SAMD13] | 2.26 ± 0.29 | 2.47 ± 0.42
LTGQKAVKVHGLLKTFVKQTDHIK [GFOD1] | 2.85 ± 0.29 | 2.59 ± 0.27
LTHIEAQNKIRACGERLSLGLSRA [PDLIM7] | 2.83 ± 0.27 | 2.85 ± 0.12
LTLCKSDLESQVESLREELICLKK [KRT34] | 2.89 ± 0.87 | 2.65 ± 0.27
LTRFLSRVIKCDPDCLRACQEQIE [CCND1] | 2.34 ± 0.16 | 2.56 ± 0.07

Sequence | protein stability index (treatment: DMSO) | protein stability index (treatment: MLN4924 1 uM, 8 h)
LTTASIIQLGVTPPGYSAWIKEEA [SLC6A17] | 2.6 ± 0.23 | 2.82 ± 0.31
LWVPQPPPRTIKRTRRRLSRNRDP [PWWP2B] | 3.44 ± 0.35 | 3.82 ± 0.33
LYDLRADREVAIYSKESIIFGASS [GNB5] | 2.51 ± 0.27 | 2.72 ± 0.27
LYFSIHRYEQGRFWPHLKASNWST [HDAC6] | 2.77 ± 0.66 | 2.73 ± 0.64
LYLKQSDLASAAAKQIMEETYKME [INTS4] | 3.05 ± 0.17 | 3.3 ± 0.23
LYQRAPRNIHRHVILSEIKEAVAA [TCF25] | 2.75 ± 0.34 | 2.7 ± 0.25
MASRKTKKKEGGALRAQRASSNVF [MYL5] | 4.13 ± 0.15 | 4.05 ± 0.25
MATLNRTAAGLMHTFNAHAATDIT [SEPHS2] | 2.95 ± 0.053 | 3.01 ± 0.19
MAVPPGHGPFSGFPGPQEHTQVLP [DYRK1B] | 3.75 ± 0.29 | 3.66 ± 0.065
MCTKMEQPFYHDDSYTATGYGRAP [JUNB] | 3.19 ± 0.19 | 3.25 ± 0.24
MEACMDGHVEVARLLLDSGAQVNM [ANKRD17] | 2.98 ± 0.32 | 3.06 ± 0.28
MEEMSGESVVSSAVPAAATRTTSF [KCTD10] | 4.76 ± 0.28 | 4.82 ± 0.49
MEQFCWPHLRSFCETCVGSWSIQM | 2.82 ± 0.44 | 2.49 ± 0.73
MFLEISSYYDPGRLICDFPFDGLL [VPS39] |  | 3.39 ± 1.3
MGKRYFCDYCDRSFQDNLHNRKKH [ZMAT5] | 3.03 ± 0.33 | 3.42 ± 0.34
MGQCRSANAEDAQEFSDVERAIET [S100A14] | 4.99 ± 0.32 | 5.15 ± 0.2
MGSQHSAAARPSSCRRKQEDDRDG [TMEM106C] | 5.22 ± 0.15 | 5.4 ± 0.15
MHRLGEPQARMREENMERIGEEVR [BEX1] | 5.14 ± 0.13 | 5.2 ± 0.21
MKFAQVFGCFFYVYYIFERLCAPL [SOAT1] | 2.89 ± 0.54 | 2.87 ± 0.51
MKYTSEKFLEICKLSGFMSKLVPA [TPRG1] | 3.05 ± 1 | 2.56 ± 0.45
